B1: liprin-α2_CC2N (residues 300–404) (domain or fragment)
chain: EVEQEAETARKDLIKTEEMNTKYQRDIREAMAQKEDMEERITTLEKRYLSAQRESTSIHDMNDKLENELANKEAILRQMEEKNRQLQERLELAEQKLQQTMRKAE
B4: RIM1_C2B (residues 1166–1334) (domain or fragment)
chain: GPAQLVGRQTLATPAMGDIQIGMEDKKGQLEVEVIRARSLTQKPGSKSTPAPYVKVYLLENGACIAKKKTRIARKTLDPLYQQSLVFDESPQGKVLQVIVWGDYGRMDHKCFMGVAQILLEELDLSSMVIGWYKLFPPSSLVDPTLAPLTRRASQSSLESSSGPPCIRS

Holding throughout (assay): ITC
In general terms: ITC needs no label: the signal is the heat of the interaction.

In one experiment the target is T1, RIM1_C2B R1236E (Rattus norvegicus).
T1 chain: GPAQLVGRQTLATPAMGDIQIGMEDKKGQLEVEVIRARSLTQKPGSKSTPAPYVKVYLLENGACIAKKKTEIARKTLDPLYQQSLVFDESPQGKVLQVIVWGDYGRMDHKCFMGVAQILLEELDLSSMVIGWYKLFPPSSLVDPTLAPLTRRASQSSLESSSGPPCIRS

Another experiment deals with T2, RIM1_C2B L1245Q (Rattus norvegicus).
T2 chain: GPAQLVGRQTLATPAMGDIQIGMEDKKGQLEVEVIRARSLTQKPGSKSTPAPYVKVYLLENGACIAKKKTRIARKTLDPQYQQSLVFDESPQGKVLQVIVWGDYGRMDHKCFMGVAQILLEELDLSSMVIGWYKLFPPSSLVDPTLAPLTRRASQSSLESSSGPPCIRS

For experiment [1], the target named is B4.
A further experiment deals with T3, RIM1_C2B K1240E (Rattus norvegicus).
T3 chain: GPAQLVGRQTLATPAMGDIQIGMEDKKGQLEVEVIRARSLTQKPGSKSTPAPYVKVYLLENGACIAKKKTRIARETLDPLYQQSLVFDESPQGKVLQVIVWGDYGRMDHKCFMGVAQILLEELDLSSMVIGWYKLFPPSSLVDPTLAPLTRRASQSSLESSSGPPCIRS

Experiment [2] concerns the target T4, liprin-α2_CC2 (residues 259–542) (human, UniProt O75334 259-542).
T4 chain: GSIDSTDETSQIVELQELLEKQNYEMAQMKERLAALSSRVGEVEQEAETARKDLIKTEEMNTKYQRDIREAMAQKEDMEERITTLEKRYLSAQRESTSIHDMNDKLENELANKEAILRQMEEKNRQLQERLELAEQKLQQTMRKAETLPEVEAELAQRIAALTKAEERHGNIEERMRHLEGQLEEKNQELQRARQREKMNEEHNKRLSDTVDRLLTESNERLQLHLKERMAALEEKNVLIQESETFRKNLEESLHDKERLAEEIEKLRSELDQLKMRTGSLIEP

The target of experiment [3] is B1.
A further experiment deals with T5, liprin-α2_CC2N A350S (human, UniProt O75334 300-404, A350S).
T5 sequence: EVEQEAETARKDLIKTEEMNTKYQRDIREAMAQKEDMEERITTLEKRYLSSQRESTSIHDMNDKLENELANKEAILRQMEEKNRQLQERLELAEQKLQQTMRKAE

Another experiment concerns the target T6, liprin-α2_CC2N E380R (human, UniProt O75334 300-404, E380R).
T6 sequence: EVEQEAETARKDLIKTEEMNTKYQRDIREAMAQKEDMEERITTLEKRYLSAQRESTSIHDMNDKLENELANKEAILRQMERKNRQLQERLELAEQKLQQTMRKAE

Where only a bound is given, the exact number is not on record here.

On to B1, for which the Kd (commonly the constant that tells how readily two partners part at equilibrium) was 27 µM with RIM1_C2B R1236E, greater than 100 µM with RIM1_C2B L1245Q, 4 µM in experiment [1] and 25 µM with RIM1_C2B K1240E.

B2: liprin-α2_CC2N E379R (protein)
chain: EVEQEAETARKDLIKTEEMNTKYQRDIREAMAQKEDMEERITTLEKRYLSAQRESTSIHDMNDKLENELANKEAILRQMREKNRQLQERLELAEQKLQQTMRKAE
In turn, B2 had a Kd in experiment [1] of 23 µM.

B3: liprin-α2_CC2N R383A (protein)
chain: EVEQEAETARKDLIKTEEMNTKYQRDIREAMAQKEDMEERITTLEKRYLSAQRESTSIHDMNDKLENELANKEAILRQMEEKNAQLQERLELAEQKLQQTMRKAE
In turn, B3 yielded a Kd in experiment [1] of 24 µM.

Take B4: the equilibrium dissociation constant (Kd) was 5 µM in experiment [2], 4 µM in experiment [3], 5.7 µM with liprin-α2_CC2N A350S and 8.2 µM with liprin-α2_CC2N E380R.
